Experimental data from PMC12689856, “A highly active Burkholderia polyketoacyl-CoA thiolase for production of triacetic acid lactone” (Nature Communications, 2025).

Columns and labels:
[1] = tested on: CC(=O)SCCNC(=O)CCNC(=O)[C@H](O)C(C)(C)COP(=O)(O)OP(=O)(O)OC[C@H]1O[C@@H](n2cnc3c(N)ncnc32)[C@H](O)[C@@H]1OP(=O)(O)O; experiment: purified protein; details: acetyl-CoA as only substrate, 12.5-400 uM, 50 mM sodium phosphate, 3 mM EDTA, 1 mM DTT, 22 °C, 3 uM enzyme
[2] = biological target: T1, BktBbr (Burkholderia sp. RF2-non_BP3, UniProt Z9IDK7UI24); experiment: X-ray crystal structure, soaked, […] Å; format: binding; details: 20 mM ligand soak 3 h; active site and CoA tunnel; paper calls CoA esters covalent
T1 construct: synthetic codon-optimised gene in pET-28a(+)-TEV (NdeI/XhoI), E. coli BL21(DE3), Ni-NTA; tetramer

[3] = biological target: T1, BktBbr; experiment: X-ray crystal structure, soaked, […] Å; format: binding; details: 20 mM ligand soak 3 h; active site and CoA tunnel; paper calls CoA esters covalent; remark: listed apart in the source
[4] = tested on: T2, BktBbb; experiment: coupled alpha-KGDH assay, NADH fluorescence; format: biochemical, Burkholderia sp. Bp8998; details: acetyl-CoA as only substrate, 12.5-400 uM; 50 mM sodium phosphate, 3 mM EDTA, 1 mM DTT; 22 °C; 3 uM enzyme
T2 construct: gene bktB; synthetic codon-optimised gene in pET-28a(+)-TEV, E. coli BL21(DE3), Ni-NTA
Excerpt: coupled alpha-KGDH assay, NADH fluorescence on BktBbb | Michaelis-Menten plot of all BktBs and 2-PS with only acetyl-CoA or malonyl-CoA

[5] = biological target: T3, BktBbr (Burkholderia sp. RF2-non_BP3, UniProt Z9IDK7UI24, S254A); experiment: coupled alpha-KGDH assay, TAL formation; format: biochemical; details: acetoacetyl-CoA varied to 200 uM, acetyl-CoA fixed 200 uM; 22 °C
T3 construct: synthetic codon-optimised gene in pET-28a(+)-TEV (NdeI/XhoI), E. coli BL21(DE3), Ni-NTA; tetramer

[6] = biological target: T4, BktBbr (Burkholderia sp. RF2-non_BP3, UniProt Z9IDK7UI24, G255A); experiment: coupled alpha-KGDH assay, TAL formation; format: biochemical; details: acetoacetyl-CoA varied to 200 uM, acetyl-CoA fixed 200 uM; 22 °C
T4 construct: synthetic codon-optimised gene in pET-28a(+)-TEV (NdeI/XhoI), E. coli BL21(DE3), Ni-NTA; tetramer

[7] = biological target: T1, BktBbr; experiment: X-ray crystal structure, soaked, […] Å; format: binding; details: 20 mM ligand soak 3 h; CoA tunnel, water-mediated contacts; paper calls CoA esters covalent
[8] = substrate: CC(C)(COP(=O)(O)OP(=O)(O)OC[C@H]1O[C@@H](n2cnc3c(N)ncnc32)[C@H](O)[C@@H]1OP(=O)(O)O)[C@@H](O)C(=O)NCCC(=O)NCCSC(=O)CC(=O)O; experiment: coupled alpha-KGDH assay, NADH fluorescence; format: biochemical, Gerbera hybrid cultivar; details: malonyl-CoA as only substrate, 12.5-400 uM, 22 °C
Excerpt: coupled alpha-KGDH assay, NADH fluorescence on 2-PS | Michaelis-Menten plot of all BktBs and 2-PS with only acetyl-CoA or malonyl-CoA

[9] = substrate: CC(=O)SCCNC(=O)CCNC(=O)[C@H](O)C(C)(C)COP(=O)(O)OP(=O)(O)OC[C@H]1O[C@@H](n2cnc3c(N)ncnc32)[C@H](O)[C@@H]1OP(=O)(O)O; experiment: coupled alpha-KGDH assay, NADH fluorescence; format: biochemical, Cupriavidus necator; details: acetyl-CoA as only substrate, 12.5-400 uM, 50 mM sodium phosphate, 3 mM EDTA, 1 mM DTT, 22 °C, 3 uM enzyme
Excerpt: coupled alpha-KGDH assay, NADH fluorescence on BktBcn | BktBbr and BktBba have slightly higher kcat/KM than BktBcn and BktBcl

BktBbr (Burkholderia sp. RF2-non_BP3)
Km [1]: 23.99 ± 13.47 µM
kcat [1]: 1.203 ± 0.115 s⁻¹
kcat/Km [1]: 50200 ± 21000 M⁻¹ s⁻¹

CCCC(=O)SCCNC(=O)CCNC(=O)[C@H](O)C(C)(C)COP(=O)(O)OP(=O)(O)OC[C@H]1O[C@@H](n2cnc3c(N)ncnc32)[C@H](O)[C@@H]1OP(=O)(O)O [butyryl-CoA]
X-ray crystal structure, soaked, 2.1 Å [2]: Binding of butyryl-CoA in the active site (PDB ID: 9BWL)

CC(=O)SCCNC(=O)CCNC(=O)[C@H](O)C(C)(C)COP(=O)(O)OP(=O)(O)OC[C@H]1O[C@@H](n2cnc3c(N)ncnc32)[C@H](O)[C@@H]1OP(=O)(O)O [acetyl-CoA]
X-ray crystal structure, soaked, 2.2 Å [3]: bound with acetyl-CoA, acetoacetyl-CoA, and butyryl-CoA (PDB IDs: 9BWO, 9BWP, 9BWL)
Km [4]: 43.3 ± 16.6 µM

CC(=O)CC(=O)SCCNC(=O)CCNC(=O)[C@H](O)C(C)(C)COP(=O)(O)OP(=O)(O)OC[C@H]1O[C@@H](n2cnc3c(N)ncnc32)[C@H](O)[C@@H]1OP(=O)(O)O [acetoacetyl-CoA]
coupled alpha-KGDH assay, TAL formation [5]: purified mutants of S254A and G251A exhibited overall better enzyme activity for TAL formation
coupled alpha-KGDH assay, TAL formation [6]: while G255A performed comparably to the wild-type
X-ray crystal structure, soaked, 2.4 Å [7]: Interaction of acetoacetyl-CoA with BktBbr through water molecules (PDB ID: 9BWP)

B1: 2-PS (Gerbera hybrid cultivar) (protein)
chain: MGSYSSDDVEVIREAGRAQGLATILAIGTATPPNCVAQADYADYYFRVTKSEHMVDLKEKFKRICEKTAIKKRYLALTEDYLQENPTMCEFMAPSLNARQDLVVTGVPMLGKEAAVKAIDEWGLPKSKITHLIFCTTAGVDMPGADYQLVKLLGLSPSVKRYMLYQQGCAAGGTVLRLAKDLAENNKGSRVLIVCSEITAILFHGPNENHLDSLVAQALFGDGAAALIVGSGPHLAVERPIFEIVSTDQTILPDTEKAMKLHLREGGLTFQLHRDVPLMVAKNIENAAEKALSPLGITDWNSVFWMVHPGGRAILDQVERKLNLKEDKLRASRHVLSEYGNLISACVLFIIDEVRKRSMAEGKSTTGEGLDCGVLFGFGPGMTVETVVLRSVRVTAAVANGN
notes: synthetic codon-optimised gene in pET-28a(+)-TEV, E. coli BL21(DE3), Ni-NTA
Km [8]: 6.93 ± 1.34 µM
kcat [8]: 0.9298 ± 0.0345 s⁻¹
kcat/Km [8]: 137000 ± 24800 M⁻¹ s⁻¹

B2: BktBcn (Cupriavidus necator H16) (protein)
chain: MTREVVVVSGVRTAIGTFGGSLKDVAPAELGALVVREALARAQVSGDDVGHVVFGNVIQTEPRDMYLGRVAAVNGGVTINAPALTVNRLCGSGLQAIVSAAQTILLGDTDVAIGGGAESMSRAPYLAPAARWGARMGDAGLVDMMLGALHDPFHRIHMGVTAENVAKEYDISRAQQDEAALESHRRASAAIKAGYFKDQIVPVVSKGRKGDVTFDTDEHVRHDATIDDMTKLRPVFVKENGTVTAGNASGLNDAAAAVVMMERAEAERRGLKPLARLVSYGHAGVDPKAMGIGPVPATKIALERAGLQVSDLDVIEANEAFAAQACAVTKALGLDPAKVNPNGSGISLGHPIGATGALITVKALHELNRVQGRYALVTMCIGGGQGIAAIFERI
notes: synthetic codon-optimised gene in pET-28a(+)-TEV, E. coli BL21(DE3), Ni-NTA; tetramer
Km [9]: 39.25 ± 20.43 µM
kcat [9]: 1.41 ± 0.261 s⁻¹
kcat/Km [9]: 41500 ± 16200 M⁻¹ s⁻¹
